According to patent US20040259198A1, “Purified and isolated mat II beta subunit nucleic acids and polypeptides and therapeutic and screening methods using same” (priority 1999, published 2004):
Like-named read-outs stand apart in the source and are kept apart here.

How the values were obtained:
[1] = MAT assay of recombinant MAT II β subunit protein alone; assay type: biochemical
Method: MAT activity was assayed as previously described (22,29,31). The assay contained 5-120 μM L-methionine (L-Met), 5 mM ATP in 50 mM TES buffer, pH 7.4,50 mM KCl, 15 mM MgCl2, 0.3 mM EDTA, and 4 mM DTT. The L-Met concentration was varied as indicated in the kinetic analysis. One unit (U) of MAT activity is defined as the amount of enzyme that catalyzes the formation of 1 nmol of AdoMet in 1 hour.

E. coli MAT α protein = E. coli MAT α protein (Escherichia coli, UniProt P0A817); details: Ni-NTA agarose, native conditions
Chain of E. coli MAT α protein (Q9NZL9 whole entry): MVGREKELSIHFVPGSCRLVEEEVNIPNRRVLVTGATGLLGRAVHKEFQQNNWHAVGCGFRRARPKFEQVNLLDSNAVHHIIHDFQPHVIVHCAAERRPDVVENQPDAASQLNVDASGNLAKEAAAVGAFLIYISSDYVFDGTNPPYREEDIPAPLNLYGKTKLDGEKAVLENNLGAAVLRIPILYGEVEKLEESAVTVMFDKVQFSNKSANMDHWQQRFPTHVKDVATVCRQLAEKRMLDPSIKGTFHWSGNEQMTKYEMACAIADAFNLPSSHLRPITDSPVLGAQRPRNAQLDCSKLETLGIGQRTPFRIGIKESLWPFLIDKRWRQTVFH
Chain of E. coli MAT α protein (P0A817 2-384): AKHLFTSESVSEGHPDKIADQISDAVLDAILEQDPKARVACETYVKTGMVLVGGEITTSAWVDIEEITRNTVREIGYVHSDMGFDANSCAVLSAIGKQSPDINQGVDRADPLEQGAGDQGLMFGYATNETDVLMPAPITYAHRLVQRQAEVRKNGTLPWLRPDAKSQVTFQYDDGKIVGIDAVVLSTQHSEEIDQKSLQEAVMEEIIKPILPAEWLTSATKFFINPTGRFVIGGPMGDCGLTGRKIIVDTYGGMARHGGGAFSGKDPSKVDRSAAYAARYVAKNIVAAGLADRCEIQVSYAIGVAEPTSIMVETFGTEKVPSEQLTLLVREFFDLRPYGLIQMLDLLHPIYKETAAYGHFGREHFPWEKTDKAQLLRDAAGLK
Method: The MAT II β expression clone, Clone 5, was inoculated into one liter of LB broth containing 25 μg/ml kanamycin and 100 μg/ml ampicillin, then incubated with shaking at 37° C. until an OD600 of 0.5-0.7 was reached. IPTG (Sigma) was added to a final concentration of 1 mM, and the culture was allowed to incubate for an additional 4 hours under the same conditions. […] The first, involved purification of the His-tagged protein under denaturing conditions of 8M urea, and the second involved separation of SDS-PAGE and elution of the β subunit protein from the gel.

MAT II = assay: MAT activity and kinetics in extracts of transfected Cos-1 cells; assay type: biochemical, African green monkey
Method: Transfection of Cos-1 cells with pTargeT™/MAT2A or pTargeT™/MAT2B was done using the cationic lipid reagent, Transfast™ (Promega). Preliminary experiments were carried out to optimize the transfection conditions. Typically, 1.5×10^6 cells were plated in 100 mm dish one day prior to transfection. For each plate, […] of vector DNA was applied in the ratio of 1:1 to Transfast™ in a protein-free medium for 2 h. For cells co-transfected with both α2 and β vectors, […] DNA from each was used. For each experiment, one untransfected plate served as a normal control, and a second plate was transfected with the pTargeT™ vector only (mock-transfected cells). After 48 h, cells were harvested by trypsinization with a solution containing 0.05% trypsin and 0.53 mM EDTA in Hank's balanced salt solution (HBSS, from Cellgro). Trypsinization was stopped by the addition of media supplemented with 10% FCS, cells were pelleted, washed three times in 1 ml HBSS, counted, then resuspended in 1× extraction buffer with protease inhibitors (50 mM Tris, pH 7.4, 100 mM NaCl, 5 mM MgCl2, 4 mM dithiothreitol, 0.1 IU/ml aprotinin, 0.5 mM PMSF and […] soybean trypsin inhibitor). Cells were lysed by three cycles of quick freezing and thawing, and the lysate was clarified by centrifugation at 15,000×g for 10 min at 4° C. If not immediately used; cell extracts were stored at −80° C. Protein assays were performed using the bicinchoninic acid reagent (Sigma) following the manufacturer instructions.
MAT activity in cell extracts was assayed as previously described (Kotb, M., and Kredich, N. M. (1985) J. Biol. Chem. 260, 3923-30). […] The concentration of L-Met was varied between […] using ^14C-L-Met (57.9 mCi/mmol) to a concentration of up to […], and supplementary with cold L-Met for higher concentrations.

B1: MAT II β subunit: recombinant regulatory β subunit of human methionine adenosyltransferase II, 334 amino acids, expressed in E. coli or Cos-1 cells (protein, UniProt Q9NZL9 2-334, looked up)
Methionine …: VGREKELSIHFVPGSCRLVEEEVNIPNRRVLVTGATGLLGRAVHKEFQQNNWHAVGCGFRRARPKFEQVNLLDSNAVHHIIHDFQPHVIVHCAAERRPDVVENQPDAASQLNVDASGNLAKEAAAVGAFLIYISSDYVFDGTNPPYREEDIPAPLNLYGKTKLDGEKAVLENNLGAAVLRIPILYGEVEKLEESAVTVMFDKVQFSNKSANMDHWQQRFPTHVKDVATVCRQLAEKRMLDPSIKGTFHWSGNEQMTKYEMACAIADAFNLPSSHLRPITDSPVLGAQRPRNAQLDCSKLETLGIGQRTPFRIGIKESLWPFLIDKRWRQTVFH
[1]
  MAT catalytic activity: no MAT catalytic activity
E. coli MAT α protein; listed as recombinant MAT II β subunit protein
  association / co-purification with E. coli MAT α: associated spontaneously
E. coli MAT α protein; listed as recombinant human MAT II β subunit protein
  association / co-purification with E. coli MAT α: co-purifying
MAT II; expression in Cos-1 cells
  effect on the Km for L-Met of the endogenous MAT II: no effect
MAT II; expression in Cos-1 cells, result in words
  effect on MAT (specific) activity: increase
MAT II; extracts of Cos-1 cells transfected with β or co-transfected with α2 and β, single kinetic form, read-out: Km for L-Met
  Km: 20 µM
MAT II; transfected Cos-1 cell extracts compared to untransfected (or mock-transfected) cells
  increase in MAT activity: ~2 fold
